In publication PMC10897201:

What was measured:
[1] = biological target: surface Spycatcher fused to the hinge of hCD52 (human); assay: flow cytometry on cells; titration of purified Spytag-mClover3 on CHO-K1 cells transduced with surface Spycatcher; covalent coupling read by mClover3 fluorescence
CD2 (human) = CD2 (human) (UniProt P06729)
Chain of UniProt P06729 (P06729 25-351): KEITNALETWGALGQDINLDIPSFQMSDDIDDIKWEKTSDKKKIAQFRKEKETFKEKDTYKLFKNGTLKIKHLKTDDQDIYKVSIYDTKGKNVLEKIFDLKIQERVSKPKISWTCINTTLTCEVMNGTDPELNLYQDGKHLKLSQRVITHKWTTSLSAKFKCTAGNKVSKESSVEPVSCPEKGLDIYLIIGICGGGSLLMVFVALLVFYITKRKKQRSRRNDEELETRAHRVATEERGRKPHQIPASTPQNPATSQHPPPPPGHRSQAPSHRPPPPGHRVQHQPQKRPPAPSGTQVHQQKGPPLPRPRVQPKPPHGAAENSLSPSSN

Substance | concentration at saturation [1] [µM] | fold improvement of antigen sensitivity, 4-1BB, 1G4 TCR T cells, with the CD2 ligand against pMHC alone (CD2 (human)) [fold] | fold improvement of antigen sensitivity, 4-1BB, D52N CAR T cells, with the CD2 ligand against pMHC alone (CD2 (human)) [fold] | fold improvement of antigen sensitivity, IL-2, 1G4 TCR T cells, with the CD2 ligand against pMHC alone (CD2 (human)) [fold] | fold improvement of antigen sensitivity, IL-2, D52N CAR T cells, with the CD2 ligand against pMHC alone (CD2 (human)) [fold]
purified mClover3 fused to Spytag | 1 |  |  |  | 
full extracellular domain of CD58 fused to a C-terminal Spytag and Histag (from UniProt P19256 29-215) (ligand) |  | 230 | 11 | 46 | 3.9
